Literature values, collected in patent US20230210827A1, “METHODS AND COMPOSITIONS FOR TREATING ANEMIA USING ACTRIIB LIGAND TRAPS AND MTOR INHIBITORS” (Celgene Corporation, priority 2020, published 2023).

T1: GDF-11 (Homo sapiens, UniProt O95390)
T1 sequence (O95390 299-407): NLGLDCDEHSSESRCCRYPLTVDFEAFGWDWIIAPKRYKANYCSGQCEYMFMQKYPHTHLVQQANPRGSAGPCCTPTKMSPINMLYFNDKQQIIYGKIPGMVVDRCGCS


What was measured:
GDF-11 = target: T1, GDF-11; details: ActRIIB variants; background statements
activin = details: ActRIIB variants; background statements

| Molecule | affinity for / binding to GDF-11 (GDF-11) | affinity for / binding to activin (activin) |
| --- | --- | --- |
| A64: Fc fusion protein having ActRIIB extracellular sequence with alanine at position 64 of SEQ ID NO:2 (protein, fusion protein comprising a soluble extracellular domain of ActRIIB (A64; SEQ ID NO 3) fused to an Fc domain) SGRGEAETRECIYYNANWELERTNQSGLERCEGEQDKRLHCYASWANSSGTIELVKKGCWLDDFNCYDRQECVATEENPQVYFCCCEGNFCNERFTHLPEAGGPEVTYEPPPTAPTGGGTHTCPPCPAPELLGGPSVFLFPPKPKDTLMISRTPEVTCVVVDVSHEDPEVKFNWYVDGVEVHNAKTKPREEQYNSTYRVVSVLTVLHQDWLNGKEYKCKVSNKALPVPIEKTISKAKGQPREPQVYTLPPSREEMTKNQVSLTCLVKGFYPSDIAVEWESNGQPENNYKTTPPVLDSDGSFFLYSKLTVDKSRWQQGNVFSCSVMHEALHNHYTQKSLSLSPGK | relatively low affinity | relatively low affinity |
| R64: Fc fusion protein with an arginine at position 64 of the ActRIIB precursor amino acid sequence (protein, fusion protein comprising a soluble extracellular domain of ActRIIB (R64; SEQ ID NO15) fused to an Fc domain) SGRGEAETRECIYYNANWELERTNQSGLERCEGEQDKRLHCYASWRNSSGTIELVKKGCWLDDFNCYDRQECVATEENPQVYFCCCEGNFCNERFTHLPEAGGPEVTYEPPPTAPTGGGTHTCPPCPAPELLGGPSVFLFPPKPKDTLMISRTPEVTCVVVDVSHEDPEVKFNWYVDGVEVHNAKTKPREEQYNSTYRVVSVLTVLHQDWLNGKEYKCKVSNKALPVPIEKTISKAKGQPREPQVYTLPPSREEMTKNQVSLTCLVKGFYPSDIAVEWESNGQPENNYKTTPPVLDSDGSFFLYSKLTVDKSRWQQGNVFSCSVMHEALHNHYTQKSLSLSPGK | low nanomolar to high picomolar range | low nanomolar to high picomolar range |
| ActRIIB(20-119)-Fc: ActRIIB-Fc fusion protein containing amino acids 20-119 of SEQ ID NO:14 (SEQ ID NO:18) (protein, human ActRIIB soluble (extracellular), processed polypeptide sequence with the C-terminal 15 aa deleted (aa 20-119 of SEQ ID NO14)) GRGEAETRECIYYNANWELERTNQSGLERCEGEQDKRLHCYASWRNSSGTIELVKKGCWLDDFNCYDRQECVATEENPQVYFCCCEGNFCNERFTHLPEA | reduced binding to GDF-11 and activin | reduced binding to GDF-11 and activin |
| L79A: ActRIIB extracellular domain polypeptide with L79A mutation (protein, UniProt Q13705 19-137, looked up, variant L79A, extracellular domain, ActRIIB extracellular domain polypeptide with L79A mutation) extracellular domain: SGRGEAETRECIYYNANWELERTNQSGLERCEGEQDKRLHCYASWRNSSGTIELVKKGCWADDFNCYDRQECVATEENPQVYFCCCEGNFCNERFTHLPEAGGPEVTYEPPPTAPTLLT | reduce GDF-11 binding to a greater extent than activin binding |  |
| L79P: ActRIIB extracellular domain polypeptide with L79P mutation (protein, UniProt Q13705 19-137, looked up, variant L79P, extracellular domain, ActRIIB extracellular domain polypeptide with L79P mutation) extracellular domain: SGRGEAETRECIYYNANWELERTNQSGLERCEGEQDKRLHCYASWRNSSGTIELVKKGCWPDDFNCYDRQECVATEENPQVYFCCCEGNFCNERFTHLPEAGGPEVTYEPPPTAPTLLT | reduce GDF-11 binding to a greater extent than activin binding |  |
| L79E: ActRIIB extracellular domain polypeptide with L79E mutation (protein, UniProt Q13705 19-137, looked up, variant L79E, extracellular domain, ActRIIB extracellular domain polypeptide with L79E mutation) extracellular domain: SGRGEAETRECIYYNANWELERTNQSGLERCEGEQDKRLHCYASWRNSSGTIELVKKGCWEDDFNCYDRQECVATEENPQVYFCCCEGNFCNERFTHLPEAGGPEVTYEPPPTAPTLLT | retain GDF-11 binding | greatly reduced activin binding |
| L79D: ActRIIB extracellular domain polypeptide with L79D mutation (protein, listed as Homo sapiens, human ActRIIB precursor protein sequence (A64), ActRIIB extracellular domain polypeptide with L79D mutation) MTAPWVALALLWGSLWPGSGRGEAETRECIYYNANWELERTNQSGLERCEGEQDKRLHCYASWANSSGTIELVKKGCWDDDFNCYDRQECVATEENPQVYFCCCEGNFCNERFTHLPEAGGPEVTYEPPPTAPTLLTVLAYSLLPIGGLSLIVLLAFWMYRHRKPPYGHVDIHEDPGPPPPSPLVGLKPLQLLEIKARGRFGCVWKAQLMNDFVAVKIFPLQDKQSWQSEREIFSTPGMKHENLLQFIAAEKRGSNLEVELWLITAFHDKGSLTDYLKGNIITWNELCHVAETMSRGLSYLHEDVPWCRGEGHKPSIAHRDFKSKNVLLKSDLTAVLADFGLAVRFEPGKPPGDTHGQVGTRRYMAPEVLEGAINFQRDAFLRIDMYAMGLVLWELVSRCKAADGPVDEYMLPFEEEIGQHPSLEELQEVVVHKKMRPTIKDHWLKHPGLAQLCVTIEECWDHDAEARLSAGCVEERVSLIRRSVNGTTSDCLVSLVTSVTNVDLPPKESSI | retain GDF-11 binding | greatly reduced activin binding |
